Assays:
[1] = target: T1, N (ancestral) (SARS-CoV-2 (Wuhan-Hu-1), UniProt P0DTC9 1-419); assay: SV-AUC; […], pH 7.50 ([…], pH 7.4; temperature not given; settings: protein: recombinant; tags: 6xHis-TEV, cleaved; chain copies: 2; single strand
[2] = target: T1, N (ancestral); assay: SV-AUC, mass photometry; […], pH 7.50 ([…], pH 7.4; temperature not given; settings: protein: recombinant; tags: 6xHis-TEV, cleaved; chain copies: 2; hairpin

Row | Binder | binding result [1] | binding result [2]
1 | TTTTTTTTTT (ssDNA) [T10] | binds | 
2 | ACGUGGCUUUGGAGACUCCGUGGAGGAGGUCUUAUCAGAGGCACGU (structured_RNA) [SL7] |  | binds
